Assay results: patent US4829052A, “Serine protease inhibitors” (Monsanto Company, priority 1987, dated 1989)
Entries after “also recorded” stand apart in the source; their conditions may differ.

Key:
Human Sputum Cathepsin G [1] = biological target: T1, Human Sputum Cathepsin G (Homo sapiens, UniProt P08311); experiment: Cathepsin G assay (spectrophotometric, p-nitroanilide substrate); assay type: biochemical; conditions: inhibitor/protease ratio between about 10/1 and 50/1
T1 construct: Human Sputum Cathepsin G (Product No. SG-45, EPC, Inc., Pacific, Mo.); purchased EPC, Inc., Pacific, Mo; SG-45; host or cells: human sputum
T1 sequence (P08311 21-255): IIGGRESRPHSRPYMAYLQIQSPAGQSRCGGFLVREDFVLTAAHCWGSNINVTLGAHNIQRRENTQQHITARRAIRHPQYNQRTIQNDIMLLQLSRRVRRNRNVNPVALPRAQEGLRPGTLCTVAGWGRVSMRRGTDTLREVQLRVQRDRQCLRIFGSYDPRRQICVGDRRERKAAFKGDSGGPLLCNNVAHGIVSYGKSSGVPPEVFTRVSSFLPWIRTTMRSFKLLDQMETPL
Experimental: (§1) The inhibitory activity of the polypeptides of the present invention can be easily assayed using in vitro assays. In these types of spectrophotometric assays the activity of the serine protease is measured toward an appropriate p-nitroanilide substrate in the presence and absence of the peptide inhibitor. The enzyme catalyzed hydrolysis of the peptide p-nitroanilide substrate produces p-nitroanaline which results in an increase in absorbance which is monitored in the range of 405 to 410 nm. The rate of increase in absorbance is a measure of the enzymatic activity and the decrease in this rate relative to a suitable control is used to ascertain inhibition. The general assay procedure and details of the particular assays employed in the examples are provided in the Appendix following the examples. It is also possible to test the polypeptides in a functionally oriented assay that emulates in vivo conditions. Such an inhibition assay for elastase is also described in the Appendix.
(§2) Generalized Protocol Spectrophotometric Assays:
(§3) (1) Pipette 100 μl of enzyme solution into a disposable polystyrene cuvette (1 cm optical path length).
(§4) (2) Add (1900-X) μl of bufferto the cuvette, where X is the volume of test solution in microliters that is added in the next step.
(§5) Add X μl of test solution to the cuvette, where X ranges from 0 μl for the control to a maximum of about 500 μl. Incubate the solution for a period of 1 to 5 minutes at ambient temperature.
(§6) (4) Add 100 μl of substrate solution to the cuvette. Mix the contents by covering the cuvette with a piece of paraffin film and repeatedly inverting for a period of 5 to 15 seconds.
(§7) (5) Record the change in absorbance for about 5 minutes at either 405 or 410 nm, depending on the assay, with a spectrophotometer equipped with a suitable recording device.
(§8) The percent inhibition is calculated from the formula [formula] where (ΔA/min) is the initial rate of absorbance change.
(§9) (7) For more accurate quantitative determinations temperature control of the cuvette holders and the reagent solutions can be instituted.
(§10) (8) The test solution can be crude oxidized peptide prepared as described above, fractions from a chromatographic separation or purified polypeptides.
(A) Buffer Solution - Tris-NaCl buffer consisting of 0.1M Tris-HCl, pH 8.0 containing 0.5M NaCl and 0.03% sodium azide.
(B) Substrate solution - Dissolve 50 mg of N-succinyl-L-alanyl-L-alanyl-L-prolyl-L-phenylalanine p-nitroanilide in 1 ml of 1-methyl-2-pyrrolidinone and dilute to 50 ml with Tris-NaCl buffer.
(C) Enzyme Solution - Human Sputum Cathepsin G (Product No. SG-45, EPC, Inc., Pacific, Mo.). Dissolve 1 mg of protein per 1 ml of Tris-NaCl buffer. Store on ice or at 4° C.
(D) Test Solutions - See the general protocol, number 8.
Procedure: Use the above solution in the general protocol described above. […]

Human Sputum Elastase = biological target: T2, Human Sputum Elastase (Homo sapiens, UniProt P08246); experiment: Elastase assay (spectrophotometric, p-nitroanilide substrate); assay type: biochemical; conditions: for Inhibitory Activity Elastase: inhibitor/protease ratio between about 10/1 and 50/1; for inhibition of human elastase (in words): text discussion of Table III
T2 construct: Human Sputum Elastase, product No. SE-563 EPC, Inc., Pacific, Mo; USA, Lot 85701; purchased EPC, Inc., Pacific, Mo; USA SE-563; host or cells: human sputum
T2 sequence (P08246 30-267): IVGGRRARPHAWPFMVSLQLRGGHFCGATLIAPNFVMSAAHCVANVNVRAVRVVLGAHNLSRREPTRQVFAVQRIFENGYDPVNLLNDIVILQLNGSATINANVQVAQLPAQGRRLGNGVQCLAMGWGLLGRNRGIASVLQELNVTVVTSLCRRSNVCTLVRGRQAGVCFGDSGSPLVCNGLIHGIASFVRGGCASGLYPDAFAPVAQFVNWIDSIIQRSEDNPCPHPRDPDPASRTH
Experimental: as §1, §2, §3, §4, §5, §6, §7, §8, §9, §10
(A) Buffer Solution - Tris-NaCl buffer consisting of 0.1M Tris-HCl pH 7.5 at 25° C. containing 0.5M NaCl and 0.01% (w/v) NaNs.
(B) Substrate Solution - Dissolve 45.5 mg of N-succinyl-L-alanyl-L-alanyl-L-alanine p-nitroanilide in 1 ml of 1-methyl-2-pyrrolidinone. Add 32 ml of Tris-NaCl buffer.
(C) Enzyme Solution - Human Sputum Elastase, product No. SE-563 EPC, Inc., Pacific, Mo. USA, Lot 85701. Dissolve 1 mg in 1 ml of Tris-NaCl buffer. Store on ice or at 4° C.
(§11) (D) Test Solution - See general protocol, number 8.
(§12) Procedure: Use the above solutions in the general protocol described above.
(1) Buffer Solution - Tris-NaCl buffer -see Method 1.
(2) Substrate Solution - Dissolve 50 mg of 3-carbomethoxypropionyl-L-alanyl-L-alanyl-L-[…]-L-valine p-nitroanilidein 1 ml of 1-methyl-2-pyrrolidinone. Add 32 ml of Tris-NaCl buffer.
(3) Enzyme Solution - Human sputum elastase, product No. SE-563, EPC, inc. Pacific, Mo. USA, Lot 85071. Prepare a sample at a concentration of 0.01 mg per ml of Tris-NaCl buffer. Store on ice.
(4) Test Solution - general protocol, number 8.
Procedure: Use the above solutions in the general protocol.
(1) Porcine pancreatic elastase may be substituted for human elastase when it is desired to test for an inhibitor of the former.
(2) The activity of an elastase preparation can be calculated as [formula]
(3) The Tris-NaCl buffer also can be pH 8.0 with 0.03% sodium azide. Results should be compared at a single pH.

bovine trypsin [2] = biological target: T3, bovine trypsin (Bos taurus, UniProt P00760); experiment: Trypsin assay (spectrophotometric, N-Benzoyl-L-arginine p-nitroanilide substrate); assay type: biochemical; conditions: inhibitor/protease ratio between about 10/1 and 50/1
T3 sequence (P00760 24-246): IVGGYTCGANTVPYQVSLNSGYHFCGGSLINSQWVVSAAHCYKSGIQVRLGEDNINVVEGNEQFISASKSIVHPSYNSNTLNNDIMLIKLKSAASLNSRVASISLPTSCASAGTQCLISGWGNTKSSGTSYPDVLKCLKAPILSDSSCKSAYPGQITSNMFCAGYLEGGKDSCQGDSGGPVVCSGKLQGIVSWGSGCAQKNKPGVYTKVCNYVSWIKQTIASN
Experimental: as §1, §2, §3, §4, §5, §6, §7, §8, §9, §10
(A) Buffer Solution - Triethanolamine buffer consisting of 200 mM triethanolamine, 20 mM CaCl2, pH 7.8
(B) Substrate solution - Dissolve 50 mg of N-Benzoyl-L-arginine p-nitroanilide in 50 ml of water. Sonicate for 5 to 10 minutes to completely dissolve the solid material.
(C) Enzyme solution - Dissolve 1 mg of bovine trypsin in 10 ml of 0.001N HCl stored on ice during the assay.
as §11, §12

bovine chymotrypsin [3] = biological target: T4, bovine chymotrypsin (Bos taurus, UniProt P00766); experiment: Chymotrypsin assay (spectrophotometric, p-nitroanilide substrate); assay type: biochemical; conditions: inhibitor/protease ratio between about 10/1 and 50/1
Experimental: as §1, §2, §3, §4, §5, §6, §7, §8, §9, §10
(A) Buffer solution - triethanolamine buffer- See trypsin assay.
(B) Substrate Solution - Dissolve 25 mg of 3-carbomethoxypropionyl-L-arginyl-L-prolyl-L-tyrosine p-nitroanilide (Product No. S-2586, KabiVitrum AB, Stockholm, Sweden) in 23.6 ml of water
(C) Enzyme solution - Dissolve 1 mg of bovine chymotrypsin in 4 ml of 0.001N HCl. Prepare the final dilution by combining 0.1 ml of the stock chymotrypsin solution and 10 ml of 0.001N HCl. Store on ice or at 4° C.
Procedure: Use the above solutions in the general protocol
(2) See note 1 of the cathepsin G assay.
(3) 0.1M Tris-HCl, pH 7.8, 20 mM CaCl2, 0.05% triton X-100 can be substituted for the triethanolamine buffer.

Human Sputum Cathepsin G [4] = biological target: T1, Human Sputum Cathepsin G; conditions: stated for comparison, no test described; cited from earlier work
bovine chymotrypsin [5] = biological target: T4, bovine chymotrypsin; conditions: stated for comparison, no test described; cited from earlier work
bovine trypsin [6] = biological target: T3, bovine trypsin; conditions: stated for comparison, no test described; cited from earlier work

Substance	Inhibitory Activity Cathepsin G (Human Sputum Cathepsin G [1])	Inhibitory Activity Elastase (Human Sputum Elastase)	Inhibitory Activity Trypsin (bovine trypsin [2])	Inhibitory Activity Chymotrypsin (bovine chymotrypsin [3])	inhibition of cathepsin G (in words) (Human Sputum Cathepsin G [4])	inhibition of chymotrypsin (in words) (bovine chymotrypsin [5])	inhibition of trypsin (in words) (bovine trypsin [6])	inhibition of human elastase (in words) (Human Sputum Elastase)
R V C P V I L Nle KCKKDSDCLAECVCLEHGYCG [Peptide 43]	- (Represents less than 10% inhibition)	++ (Represents greater than 50% inhibition)	- (Represents less than 10% inhibition)	- (Represents less than 10% inhibition)	–	–	–	–
RVCPIILMKCKKDSDCLAECVCLEHGYCG (RVCPIILMKCKKDSDCLAECVCLEHGYCG) [Peptide 1]	- (Represents less than 10% inhibition)	++ (Represents greater than 50% inhibition)	- (Represents less than 10% inhibition)	- (Represents less than 10% inhibition)	–	–	–	–
α-1-Proteinase inhibitor	–	–	–	–	inhibits all of these enzymes	inhibits all of these enzymes	inhibits all of these enzymes	–
RVCPVILLKCKKDSDCLAECVCLEHGYCG (RVCPVILLKCKKDSDCLAECVCLEHGYCG) [Peptide 45]	- (Represents less than 10% inhibition)	++ (Represents greater than 50% inhibition)	- (Represents less than 10% inhibition)	- (Represents less than 10% inhibition)	–	–	–	continue to be inhibitors of human elastase
RVCPGILMKCKKDSDCLAECVCLEHGYCG (RVCPGILMKCKKDSDCLAECVCLEHGYCG) [Peptide 51]	- (Represents less than 10% inhibition)	++ (Represents greater than 50% inhibition)	- (Represents less than 10% inhibition)	- (Represents less than 10% inhibition)	–	–	–	is a human elastase inhibitor; also recorded: less effective inhibitor of elastase than peptides 1 or 8
RVPCVILMKLKKDSDCLAECVCLEHGYCG (RVPCVILMKLKKDSDCLAECVCLEHGYCG) [Peptide 50]	- (Represents less than 10% inhibition)	- (Represents less than 10% inhibition)	- (Represents less than 10% inhibition)	- (Represents less than 10% inhibition)	–	–	–	only marginal activity
RVPCVALMKCKKDSDCLAECVCLEHGYCG (RVPCVALMKCKKDSDCLAECVCLEHGYCG) [Peptide 49]	- (Represents less than 10% inhibition)	+ (Represents between 10% and 50% inhibition)	- (Represents less than 10% inhibition)	- (Represents less than 10% inhibition)	–	–	–	continue to be inhibitors of human elastase; also recorded: only marginal activity
